Data as given in the supplement of paper PMC9170038.

Test system: MS2 coat protein
Test: apparent KD of MS2 coat protein; designed switch direction (-1 OFF switch, 1 ON switch): 1; higher = weaker reporter binding
Procedure, shortened: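 Transcription of designed RNA switches on Illumina chips was done by stalled E. coli RNA polymerase. SNAP-549-labelled MS2 coat protein was then titrated in doubling steps from 0.7 or 1.5 nM to 3 µM, with steps of 0.8–1.5 h at the lowest and 10–20 min at the highest concentration. The per-design median over clusters of curve-fitted normalised fluorescence is reported as apparent KD.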

[1] = input ligand: microRNA oligo, concentration not stated
[2] = Eterna round: R95, input ligand: FMN 200 uM
[3] = Eterna round: R95, input ligand: microRNA oligo, concentration not stated
[4] = Eterna round: R95, input ligand: none

| Sequence | apparent KD of MS2 coat protein (input ligand: FMN 200 uM) [nM] | apparent KD of MS2 coat protein [1] [nM] | apparent KD of MS2 coat protein (input ligand: none) [nM] | apparent KD of MS2 coat protein [2] [nM] | apparent KD of MS2 coat protein [3] [nM] | apparent KD of MS2 coat protein [4] [nM] |
| --- | --- | --- | --- | --- | --- | --- |
| UUAAUUAUGUAAGGAUAUACAUGAGGAUUUCUCGUAGAAGGUACAUUACAUGAGGAUCACCCAUGUGGGUGUCAGAAGACGCCA [Mat - Same State NG 1 - JL mod - D12] (Eterna round: R96, puzzle: Same State NG 1) | 269 | 210 | 404 | – | – | – |
| AAACUACAUGAGGAUCACCCAUGUGAAAACCGCAUAGGAUAUCCGCAGCAAUAAACUGACGGAGAAGGGUGACCGG [Sobearcege] (puzzle: Same State 1) | – | – | – | 306 | 414 | 549 |
| GAGCCAGUCCGAGGAUAUUCAUAUUAAACAUGAGGAUCACCCAUGUAGGCUCAGAAAGAGCCUUGGGAGAAGGCGGACUGGCUC [Xeonanisa<<1] (Eterna round: R96, puzzle: Same State NG 2) | 16.7 | 182 | 201 | – | – | – |
| CAAGGACGGACACAGGAUAUCCUCACCUACACAUGAGGAUCACCCAUGUCAUAAAAGAUGGUGCAGGAGAAGGGUGCGGCGUCUA [Bibesoxe] (puzzle: Same State 2) | – | – | – | 10.7 | 9.62 | 9.99 |
| GUAAAGAAUUAAGGAUAUUGAAUACAUAUGUUUAACAUGAGGAUCACCCAUGUGGGUUGCGGUAUCGAGAAGGUAAAAUAAAAG [Mat - Same State NG 2 - JL mod - D7] (Eterna round: R96, puzzle: Same State NG 2) | 137 | 105 | 124 | – | – | – |
| GUUAAACAUGAGGAUCACCCAUGUAAUAAUAUGGGAGGAUAUCAGAAAUUAUUUAUUAAAUGAGAAGGCCUAAUUG [Mat - Same State 1 - Mod of Eli - D81] (puzzle: Same State 1) | – | – | – | 53.6 | 321 | 150 |
| GCGGUACCUAACAUGAGGAUCACCCAUGUUCCGGAAACGGCACAGGAUAUCUGUCCGAAAAGGUCAGAGAAGGGUGAAAACCGC [Fiskers NG3ss - 94] (Eterna round: R96, puzzle: Same State NG 3) | 489 | 396 | 478 | – | – | – |
| AAACAUGAGCGAGGAUAUGCGGACGAUUACGCUGUAGAAGGCGCAUGUAAAACAACAUGAGGAUCACCCAUGUCAUGUACAUGA (Eterna round: R96, puzzle: Same State NG 1) | 81.3 | 50.4 | 83.6 | – | – | – |
| AUUAAACAUGAGGAUCACCCAUGUCAACAAAGUCGAGGAUAUGGGCAAAUAAAAUAAGAACCAGAAGGCGAAUAAU [salish99_ss1_r3_048] (puzzle: Same State 1) | – | – | – | 31.6 | 357 | 555 |
| UUCUCCUUUUUUUACAUGAGGAUCACCCAUGUUUUUCUUACGUAGGAUAUCGUUGAGUGUUUGUACGAGAAGGACGUAGUAAGU [JR_SSND3_Sub059] (Eterna round: R96, puzzle: Same State NG 3) | 37.9 | 50.5 | 67.9 | – | – | – |
| UUGAAGAAUUAAGGAUAUUGAAUACAUAUGUUUAACAUGAGGAUCACCCAUGUGGGUUGCGGUAUCGAGAAGGUAAAUAAAUAG [Mat - Same State NG 2 - JL mod - D3] (Eterna round: R96, puzzle: Same State NG 2) | 169 | 110 | 159 | – | – | – |
| AGUCCAGCGAAAGCUGGACAAAAGUAUGUACAUGAGGAUCACCCAUGUUCAUGUACAAGCUUUUUGCUCGUCUUAAA [JL mod - D95 - 10] (puzzle: Sensor for hsa-mir-208a) | – | – | – | 578 | 20.3 | 620 |
| AAUUAAGAUCAAGGAUAUCACGUCGUUUAGACGUGAGAAGGUGAUCCAUACAUGAGGAUCACCCAUGUAUAACAUGAAUUAAUU [SSNG1/8-B3] (Eterna round: R96, puzzle: Same State NG 1) | 180 | 1160 | 698 | – | – | – |
| UAGUGCAUUAGAGGAUAUUCUUACGGAAACGGUAAGACAUGAGGAUCACCCAUGUUGUCACAUGGGAAGAAGGCUGAUGUGCUA [Omei SS(NG)2 Bv5] (Eterna round: R96, puzzle: Same State NG 2) | 82.6 | 104 | 510 | – | – | – |
| UCUUGGUUUUUGCUCGUUUUUUGUGUUGAACAUGAGGAUCACCCAUGUAUUGUACGGUCCGGUUUGGUAGUGGUCCG [JMF 16] (puzzle: Sensor for hsa-mir-208a) | – | – | – | 41 | 29.4 | 53.6 |
| AAUAAACAUGAGGAUCACCCAUGUAAUAUAAAUGGAGGAUAUGCAAUUAUUAAUUAUUAAGUAGAAGGUCGAAUAA [Lollin - Epsilon 1] (Eterna round: R96, puzzle: Same State 1) | – | 67.5 | – | – | – | – |

| Sequence | apparent KD of MS2 coat protein (input ligand: FMN 200 uM) [nM] | apparent KD of MS2 coat protein [1] [nM] | apparent KD of MS2 coat protein (input ligand: none) [nM] | apparent KD of MS2 coat protein [2] [nM] | apparent KD of MS2 coat protein [3] [nM] | apparent KD of MS2 coat protein [4] [nM] |
| --- | --- | --- | --- | --- | --- | --- |
| GCACCUCGAUGAGGAUAUACAAGCGGAGAUUACAUGAGGAUCACCCAUGUGUGUCGCUUUCGAUGGUAGAAGGCAUACGAGGCA [Eternabot solution 14] (Eterna round: R96, puzzle: Same State NG 2) | 16.6 | 52.5 | 59.2 | – | – | – |
| AGGAAGGAGACUGAGGAUAUCGUUGAGAGGACAUGAGGAUCACCCAUGUGUAUAGGAUUGGAGAACGAGAAGGCAGAGGAGUGGG [JR_SS2_Sub047] (puzzle: Same State 2) | – | – | – | 58 | 76.2 | 101 |
| AAUUGUUCCUGAGGAUAUCAGUAGUUUGCUUUUUGAGAAGGCAGUACAUGAGGAUCACCCAUGUUGUGGUUUGAUAGAAUGAUA [JR_SSNG1_Sub005] (Eterna round: R96, puzzle: Same State NG 1) | 184 | 101 | 180 | – | – | – |
| UUACCGCGGGUAGGAUAUGGUCACACUUCUAAAACAUGAGGAUCACCCAUGUCCGACACAUAAAGCCAGAAGGACCCGCGGCUC [Esbea] (Eterna round: R96, puzzle: Same State NG 2) | 20.8 | 48.5 | 71.4 | – | – | – |
| UGGCUGGUGCUAGGAUAUGCAUGAGGCCUCCUCGUAGAAGGAGCACGACAUGAGGAUCACCCAUGUAGCCGUCCGUAGACGGCU [salish99_SSNG1_r04_011] (Eterna round: R96, puzzle: Same State NG 1) | 62.7 | 50.1 | 63.3 | – | – | – |
| AACAUGAGGAUCACCCAUGUCAGGCCGCCGGCCUACAUGAGGAAGGAUAUAGCCUCGAAAAUAGGCUAGAAGGUCCUCAUGAAU [Orises] (Eterna round: R96, puzzle: Same State NG 3) | 78.6 | 6.35 | 23.2 | – | – | – |
| UUGAUUAGAAAUUAACAUGAGGAUCACCCAUGUAUUGGAUCAGAGGAUAUGCAUGUUUGAUAGUAGCAGAAGGCUGAUGGUGGA [JR_SSNG3_Sub027] (Eterna round: R96, puzzle: Same State NG 3) | 68.3 | 44.2 | 45.8 | – | – | – |
| UGUUGUAUUACAGGAUAUCUAUUAUUAUUAUUUAGAGAAGGGUAUUCACAUGAGGAUCACCCAUGUAUAUACGAGGAAGUUGUG [JMF's solution 17] (Eterna round: R96, puzzle: Same State NG 1) | – | 33.8 | – | – | – | – |
| UAGUACAAGCUUUUUGCCCGUCUUAUUUAACAUGAGGAUCACCCAUGUAAGGUGAAAGUUAGAGAGUGGAGGUUGAA [JR_SHM208A_Sub049] (puzzle: Sensor for hsa-mir-208a) | – | – | – | 205 | 227 | 249 |
| GAUUAACAUGAGGAUCACCCAUGUCGUUUAAUGGGAGGAUAUACGUGGACCGUAGUCCGCGUAGAAGGCCUAAUUG [JL-ss1-3.22 janelle mod] (puzzle: Same State 1) | – | – | – | – | 76.1 | – |
| UAAUUAAAGCAAGGAUAUCACGUCGAAUAGACGUGAGAAGGUGCUCCUUACAUGAGGAUCACCCAUGUAUAACAUGAAUAAUUA [SSNG1/10-B1] (Eterna round: R96, puzzle: Same State NG 1) | 166 | 702 | 741 | – | – | – |
| UUGCGGAAUUAAGGAUAUUGAGUACAUAUGUUUAACAUGAGGAUCACCCAUGUGGGUUGCGGUAUCGAGAAGGUAAAUUACUAC [salish99_SSNG2_r04_802] (Eterna round: R96, puzzle: Same State NG 2) | 130 | 88.8 | 105 | – | – | – |
| GGCUAUCGCGUACGAUAGCUGAAGCAUGUACAUGAGGAUCACCCAUGUCAUGUACAAGCUUUUUGCUCGUCUUAUUG [JL-shm-2.32 JL mod] (puzzle: Sensor for hsa-mir-208a) | – | – | – | 243 | 13.9 | 348 |
| GGCGUAUAAACAUGAGGAUCACCCAUGUAGCGGAGACGCAAUGAGGAUAUCGAUGGGUUUCCCGUCGAGAAGGCGUGGGUCGCC [JL SSNG3 3.94] (Eterna round: R96, puzzle: Same State NG 3) | 20.6 | 20.6 | 29 | – | – | – |
| AGCAAAGCGACAGGAUAUGGUAAGGAUCUCUUACCAGAAGGGUCAAGUGCAUGACAUGAGGAUCACCCAUGUAGGUUGUUUACC [Eternabot solution 44] (Eterna round: R96, puzzle: Same State NG 1) | 18.2 | 18.5 | 26.5 | – | – | – |
